From US20180305460A1

Columns and labels:
[1] = biological target: interferon-alpha/β receptor (IFNAR) (human) (UniProt P17181)
[2] = biological target: interferon-alpha/β receptor (IFNAR) (human) (UniProt P17181); remark: listed apart in the source
[3] = biological target: interferon-alpha/β receptor (IFNAR) (human) (UniProt P17181); remark: listed apart in the source

interferon-alpha/β receptor (IFNAR) (human), sequence (P17181 28-557 limits assumed): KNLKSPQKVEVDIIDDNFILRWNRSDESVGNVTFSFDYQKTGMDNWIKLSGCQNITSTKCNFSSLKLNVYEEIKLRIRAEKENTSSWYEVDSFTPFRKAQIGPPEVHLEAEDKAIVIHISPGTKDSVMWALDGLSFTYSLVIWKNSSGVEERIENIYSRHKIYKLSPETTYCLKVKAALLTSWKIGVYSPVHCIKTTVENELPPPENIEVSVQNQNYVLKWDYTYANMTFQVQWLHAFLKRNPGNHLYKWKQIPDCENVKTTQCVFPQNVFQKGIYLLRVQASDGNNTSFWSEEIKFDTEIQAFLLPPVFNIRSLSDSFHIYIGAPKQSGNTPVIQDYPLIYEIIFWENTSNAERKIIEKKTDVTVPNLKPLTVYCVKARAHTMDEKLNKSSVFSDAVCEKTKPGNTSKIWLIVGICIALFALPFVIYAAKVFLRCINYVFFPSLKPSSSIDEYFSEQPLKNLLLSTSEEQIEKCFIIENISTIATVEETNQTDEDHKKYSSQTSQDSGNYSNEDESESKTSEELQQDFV

EC50; HEK-Blue IFN-alpha/β SEAP reporter (A630nm), left panel, the unit comes from the x axis 'Ifnα2b Equivalents in pM' [1]: 1.13 pM
EC50; HEK-Blue IFN-alpha/β SEAP reporter (A630nm), right panel, the unit comes from the x axis 'IFNα2b equivlaents in pM' [1]: 1.52 pM
half-maximal concentration headed 'IC50 pM' on the sheet (paragraph 233 calls the values EC50; the curves rise); iLite IFN-response-element luciferase reporter (RLU) [2]: 0.0645 pM
EC50; HEK-Blue IFN-alpha/β SEAP reporter (A630) on CD38-negative cells; table column headed 'IFNa2b', curve labelled 'Intron A', the unit comes from the x axis 'IFN pM' [3]: 1.52 pM
Substance: Intron A (ligand)
